Laboratory results reported in article PMC6310132 (The Biochemical journal, 2016).

Biological target: N-ethylmaleimide-sensitive factor (NSF), pRSET-A fusion protein (mouse, UniProt P46460 1-744)
Experiment: SPR

N-ethylmaleimide-sensitive factor (NSF), pRSET-A fusion protein, sequence (P46460 whole entry, the tested form may be a part): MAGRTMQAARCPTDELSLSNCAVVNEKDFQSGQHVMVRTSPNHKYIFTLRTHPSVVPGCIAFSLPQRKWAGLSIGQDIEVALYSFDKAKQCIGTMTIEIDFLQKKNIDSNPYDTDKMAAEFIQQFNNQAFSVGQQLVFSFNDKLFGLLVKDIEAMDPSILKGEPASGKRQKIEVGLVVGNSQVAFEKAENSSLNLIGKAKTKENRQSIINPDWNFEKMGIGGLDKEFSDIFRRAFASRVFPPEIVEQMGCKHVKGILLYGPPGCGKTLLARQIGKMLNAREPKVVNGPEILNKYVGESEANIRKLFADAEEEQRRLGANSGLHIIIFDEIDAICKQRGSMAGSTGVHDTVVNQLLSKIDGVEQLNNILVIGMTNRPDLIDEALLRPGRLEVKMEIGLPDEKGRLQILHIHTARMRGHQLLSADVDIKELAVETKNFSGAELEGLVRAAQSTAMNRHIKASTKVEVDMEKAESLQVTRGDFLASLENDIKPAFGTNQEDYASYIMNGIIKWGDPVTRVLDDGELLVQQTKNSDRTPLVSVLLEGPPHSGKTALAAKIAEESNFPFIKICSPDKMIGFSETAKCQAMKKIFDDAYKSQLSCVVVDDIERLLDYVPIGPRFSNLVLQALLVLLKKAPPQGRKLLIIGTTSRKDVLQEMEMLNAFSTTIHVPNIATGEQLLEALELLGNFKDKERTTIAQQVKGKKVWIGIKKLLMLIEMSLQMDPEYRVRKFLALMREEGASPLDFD

B1: rat organ of Corti dopamine D1A carboxy terminus, pRSET-A fusion protein (domain or fragment, UniProt P18901 338-425, looked up)
chain: QKAFSTLLGCYRLCPTTNNAIETVSINNNGAVVFSSHHEPRGSISKDCNLVYLIPHAVGSSEDLKKEEAGGIAKPLEKLSPALSVILD
A Kd of 12.1 nM, a koff of 0.00274 s⁻¹ and a kon of 227000 M⁻¹ s⁻¹ were found for B1 in this work.
